Measurements from the supplement of paper PMC9170038.

Tested on: MS2 coat protein
Assay: apparent KD of MS2 coat protein; designed switch direction (-1 OFF switch, 1 ON switch): 1; higher = weaker reporter binding
In short: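 Designed RNA switches with common flanks were made on Illumina chips by stalled E. coli RNA polymerase. Titration with SNAP-549-labelled MS2 coat protein doubled from 0.7 or 1.5 nM up to 3 µM. Apparent KD is each design's median over clusters after curve-fitting normalised fluorescence.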

[1] = Eterna round: R95, input ligand: FMN 200 uM
[2] = Eterna round: R95, input ligand: microRNA oligo, concentration not stated
[3] = Eterna round: R95, input ligand: none
[4] = input ligand: microRNA oligo, concentration not stated

| Sequence | apparent KD of MS2 coat protein [1] [nM] | apparent KD of MS2 coat protein [2] [nM] | apparent KD of MS2 coat protein [3] [nM] | apparent KD of MS2 coat protein (input ligand: FMN 200 uM) [nM] | apparent KD of MS2 coat protein [4] [nM] | apparent KD of MS2 coat protein (input ligand: none) [nM] |
| --- | --- | --- | --- | --- | --- | --- |
| ACAAGACAUGAGGAUCACCCAUGUAUAAAUUACACAGGAUAUCGGCAGGCAGCACCUGCACGAGAAGGGUGACUUC [Inbilera] (puzzle: Same State 1) | 193 | 21.7 | 27.3 | – | – | – |
| ACAAGCUUUUCUGUAUUGAAAGGUGGGAUACAUGAGGAUCACCCAUGUUUUUUCGUUUGUUUUGUUCCUCGUCUUAU [JR_SHM208A_Sub090] (puzzle: Sensor for hsa-mir-208a) | 87.7 | 23.9 | 116 | – | – | – |
| ACAAGCUUUUUGCUCAUCUUAUGUCCGAAACAUGAGGAUCACCCAUGUAUAGAUUAUGUGUUGUUGUAGAUGCAAGA [JR_SHM208A_Sub062] (puzzle: Sensor for hsa-mir-208a) | 31.8 | 25.9 | 42.9 | – | – | – |
| ACAAUCUGGGUAGGAUAUCUAGGAUAUGGGAAAGACUAAGUCUGUAGGUCACCUAACCCAGAUGGAGAGAAGGACCCAACACAC [pwkr ssNG2 2FMN + F9.43] (Eterna round: R96, puzzle: Same State NG 2) | – | – | – | 95.8 | 3.94 | 202 |
| ACACCACAUGAGGAUCACCCAUGUGUCAAUAACACAGGAUAUCACCCGGAAAACAACGGGUGAGAAGGGUGACCGA [Edan] (puzzle: Same State 1) | 107 | 44.6 | 75.8 | – | – | – |
| ACACGGAUACAUGAGGAUCACCCAUGUACAUGGGUUAUUACAAGCUUUUUGCUUGGGAUUAUUGGGAUUAUUAUUAA [Default title] (puzzle: Sensor for hsa-mir-208a version 2) | 122 | 156 | 153 | – | – | – |
| ACAUGAAAGGCAGGAUAUUUUGUACCUACAUGUGACAUGAGGAUCACCCAUGUGGUAAGUAUAAGAGAGAAGGGUCAGAUAUGU [Equivalence 2 - Jieux - Same State NG 2] (Eterna round: R96, puzzle: Same State NG 2) | – | – | – | 28.9 | 31.7 | 37.2 |
| ACAUGAAAGUUAGGAUAUUUUGUACCUACAUGUGACAUGAGGAUCACCCAUGUGGUAAGUAUAAGAGAGAAGGAGCAGAUAUGU [Equivalence 1 - Jieux - Same State NG 2] (Eterna round: R96, puzzle: Same State NG 2) | – | – | – | 45.1 | 48.1 | 52.8 |
| ACAUGAACAUGAGGAUCACCCAUGUUUAGGAUCACCCAUGCUCAGGAUAUAGCAUGAGGACAUGACUAGAAGGGAGGUGCUGAG [Same State NG3 S2] (Eterna round: R96, puzzle: Same State NG 3) | – | – | – | 41 | 27 | 36.1 |
| ACAUGAGAAAGAGGAUAUGUUGUACCUACAUGUGACAUGAGGAUCACCCAUGUGGUAAGUAUGAUACAGAAGGCUUAGAUAUGU [Equivalance 61 - Jieux - Same State NG 2] (Eterna round: R96, puzzle: Same State NG 2) | – | – | – | 15.1 | 17.8 | 25.6 |
| ACAUGAGACAUAGGAUAUGUUGUACCUACAUGUGACAUGAGGAUCACCCAUGUGGUAAGUAUGAGGCAGAAGGAUGAGAUAUGU [Equivalence 40 - Jieux - Same State NG 2] (Eterna round: R96, puzzle: Same State NG 2) | – | – | – | 50.3 | 37 | 74.1 |
| ACAUGAGACCUAGGAUAUGUUGUACCUACAUGUGACAUGAGGAUCACCCAUGUGGUAAGUAUGAGACAGAAGGAGGAGAUAUGU [Equivalence 28 - Jieux - Same State NG 2] (Eterna round: R96, puzzle: Same State NG 2) | – | – | – | 12.8 | 21.2 | 32 |
| ACAUGAGAGAAAGGAUAUCUUGUACCUACAUGUGACAUGAGGAUCACCCAUGUGGUAAGUAUGAGAGAGAAGGUUCAGAUAUGU [Equivalence 33 - Jieux - Same State NG 2] (Eterna round: R96, puzzle: Same State NG 2) | – | – | – | 15.9 | 25.8 | 29.8 |
| ACAUGAGAGAAAGGAUAUGGUGUACCUACAUGUGACAUGAGGAUCACCCAUGUGGUAAGUAUGACUCAGAAGGUUCAGAUAUGU [Equivalance 73 - Jieux - Same State NG 2] (Eterna round: R96, puzzle: Same State NG 2) | – | – | – | 16.9 | 65.6 | 126 |
| ACAUGAGAGAUAGGAUAUCUUGUACCUACAUGUGACAUGAGGAUCACCCAUGUGGUAAGUAUGACAGAGAAGGAUCAGAUAUGU [Equivalance 70 - Jieux - Same State NG 2] (Eterna round: R96, puzzle: Same State NG 2) | – | – | – | 20.5 | 62.8 | 82.4 |
| ACAUGAGAGAUAGGAUAUUUUGUACCUACAUGUGACAUGAGGAUCACCCAUGUGGUAAGUAUGAGAAAGAAGGAUCAGAUAUGU [Equivalance 52 - Jieux - Same State NG 2] (Eterna round: R96, puzzle: Same State NG 2) | – | – | – | 26.3 | 63.7 | 79.8 |
| ACAUGAGAGUCAGGAUAUAUUGUACCUACAUGUGACAUGAGGAUCACCCAUGUGGUAAGUAUGACAUAGAAGGGAUAGAUAUGU [Equivalance 85 - Jieux - Same State NG 2] (Eterna round: R96, puzzle: Same State NG 2) | – | – | – | 62.7 | 60.4 | 79.2 |
| ACAUGAGAGUUAGGAUAUCUUGUACCUACAUGUGACAUGAGGAUCACCCAUGUGGUAAGUAUGAGGGAGAAGGAACAGAUAUGU [Equivalence 43 - Jieux - Same State NG 2] (Eterna round: R96, puzzle: Same State NG 2) | – | – | – | – | 27.3 | – |
| ACAUGAGAUAGAGGAUAUAUUGUACCUACAUGUGACAUGAGGAUCACCCAUGUGGUAAGUAUGACAUAGAAGGCUAAGAUAUGU [Equivalance 82 - Jieux - Same State NG 2] (Eterna round: R96, puzzle: Same State NG 2) | – | – | – | 28.7 | 55.6 | 73.9 |
| ACAUGAGAUUGAGGAUAUAUAGUACCUACAUGUGACAUGAGGAUCACCCAUGUGGUAAGUAUGACAUAGAAGGCAAAGAUAUGU [Equivalance 99 - Jieux - Same State NG 2] (Eterna round: R96, puzzle: Same State NG 2) | – | – | – | 35 | 37.6 | 50.6 |
| ACAUGAGGAUCACCCAUGUAUGCUCAGGAAACUGUGCAUCAUGAGGAUAUGGAUCCUAAUUGGAUCCAGAAGGCAUGUAUUAUU [Fiskers NG3ss - 28] (Eterna round: R96, puzzle: Same State NG 3) | – | – | – | 699 | 39.1 | 45 |
| ACAUUUAGCUCGUGCACAUGAGGAUCACCCAUGUUCGGUUCACAGGAUAUCUAGUCAAACGGAUUGGAGAAGGGUGGCAGGAGC [Gelegees] (Eterna round: R96, puzzle: Same State NG 3) | – | – | – | 35.7 | 128 | 215 |
| ACCAAUCCAAUAAAACAAGCGUGCUCGUCACAUGAGGAUCACCCAUGUUUAAGCGCUGUUCCUAAUUCCUCAGCGCC [Isoreder] (puzzle: Sensor for hsa-mir-208a) | 182 | 28.8 | 168 | – | – | – |
| ACCCAAAGUAUAUGGGAACAAGCUUUUUAACAUGAGGAUCACCCAUGUGCUCGUCUUAUAAGCAGUCGAAAGACUGC [Sensor 100 - 7] (puzzle: Sensor for hsa-mir-208a) | 65.1 | – | 69 | – | – | – |
| ACCCAAGGUAUAUGGGAACAAGCUUUUUAACAUGAGGAUCACCCAUGUACUCGUCUUAUAAGCAGUCGAAAGACUGC [Sensor 100 - 6] (puzzle: Sensor for hsa-mir-208a) | 619 | 16.1 | 831 | – | – | – |
| ACCUUGUGGGUAGGAUAUUUAGGAUAUGCGGAAGACUAAGUCUGUAGGUCACCUAACGCAGAAGGAGAGAAGGACCCUUCAGCA [pwkr ssNG2 2FMN + F9.31] (Eterna round: R96, puzzle: Same State NG 2) | – | – | – | 109 | 3.66 | 4.74 |
| ACGCAGCUGGGCUAGGAUAUCGGUGGUAAAACAUGAGGAUCACCCAUGUCCGAAGCUCGGACUUCCGAGAAGGAGCCCGGCUGCG [Soinraesar Omei Mod 9] (puzzle: Same State 2) | 34.1 | 253 | 481 | – | – | – |
| ACGCUAGUCACAGGAUAUCCGAAAUAUAGCAAAGGAGAAGGGUGAUUAACAUGAGGAUCACCCAUGUAAAAGAAGAAAGAAGAU [Edargebi] (Eterna round: R96, puzzle: Same State NG 1) | – | – | – | 173 | 167 | 186 |
| ACUUAGUACAAUUUAGAUCUACAUGAGGAUCACCCAUGUACUGAGGAUAUCAGCUCGAUUAGAGCUGAGAAGGCAGUAGUACUA [SSNG3/9-A2] (Eterna round: R96, puzzle: Same State NG 3) | – | – | – | 33.3 | 35 | 53.9 |
